The values that follow come from PMC11415702.

For this data set, the target named is Complement factor H (CFH) (human, UniProt P08603 19-1231). Nature of the data set: interdigitated electrode current-volt sandwich assay.
Sequence of Complement factor H (CFH) (P08603 19-1231): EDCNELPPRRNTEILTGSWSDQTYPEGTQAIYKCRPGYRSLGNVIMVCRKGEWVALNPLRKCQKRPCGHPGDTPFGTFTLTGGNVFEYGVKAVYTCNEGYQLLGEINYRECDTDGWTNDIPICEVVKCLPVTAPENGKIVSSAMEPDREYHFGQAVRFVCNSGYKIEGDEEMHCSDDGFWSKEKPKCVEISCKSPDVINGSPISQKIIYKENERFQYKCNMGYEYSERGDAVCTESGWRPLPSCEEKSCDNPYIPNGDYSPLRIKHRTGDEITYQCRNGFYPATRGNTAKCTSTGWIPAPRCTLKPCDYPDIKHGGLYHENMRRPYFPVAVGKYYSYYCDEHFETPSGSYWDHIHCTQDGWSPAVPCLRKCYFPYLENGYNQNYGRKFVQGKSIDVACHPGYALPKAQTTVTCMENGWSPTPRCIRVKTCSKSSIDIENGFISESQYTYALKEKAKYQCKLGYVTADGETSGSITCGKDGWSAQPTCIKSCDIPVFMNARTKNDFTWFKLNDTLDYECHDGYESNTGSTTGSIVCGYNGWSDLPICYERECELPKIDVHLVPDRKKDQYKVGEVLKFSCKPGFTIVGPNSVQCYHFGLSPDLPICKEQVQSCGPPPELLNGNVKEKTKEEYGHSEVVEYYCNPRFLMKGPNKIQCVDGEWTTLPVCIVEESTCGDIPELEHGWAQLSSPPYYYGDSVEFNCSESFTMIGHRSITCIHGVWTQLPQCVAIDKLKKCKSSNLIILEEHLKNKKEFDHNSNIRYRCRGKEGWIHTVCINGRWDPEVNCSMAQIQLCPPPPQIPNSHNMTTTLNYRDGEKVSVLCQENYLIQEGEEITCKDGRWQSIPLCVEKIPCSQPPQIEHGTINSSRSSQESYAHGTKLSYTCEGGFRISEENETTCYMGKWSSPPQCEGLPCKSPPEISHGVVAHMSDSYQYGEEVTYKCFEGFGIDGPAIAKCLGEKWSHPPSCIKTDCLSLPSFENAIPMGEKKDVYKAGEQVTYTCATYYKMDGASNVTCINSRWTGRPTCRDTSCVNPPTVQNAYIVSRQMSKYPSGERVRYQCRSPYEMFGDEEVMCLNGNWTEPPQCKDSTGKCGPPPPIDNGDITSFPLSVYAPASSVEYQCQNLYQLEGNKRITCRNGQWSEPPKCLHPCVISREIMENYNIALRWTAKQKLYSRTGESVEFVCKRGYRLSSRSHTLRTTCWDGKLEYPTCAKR

With GCGGAGCGTGGCAGG (ssDNA, biotin (end not stated)) [anti-tau DNA aptamer], the binding result is reported as “no binding”.
